Assay results: paper PMC11220838, “Factors affecting macromolecule orientations in thin films formed in cryo-EM” (Acta Crystallographica. Section D, Structural Biology, 2024)
Values joined by “and” are separate entries in the source; they are usually repeats but may differ in a detail not shown here. Equal values may be shown once.

Legend:
[1] = target: SARS-CoV-2 spike protein with C-terminal tag (SARS-CoV-2); experiment: cryo-EM structure
[2] = target: the molecule itself; experiment: cryo-EM structure; single-particle cryo-EM, plunge-frozen Quantifoil 0.6/1 grids, 25 mM HEPES pH 7.4, 50 mM NaCl; no additive or CTAB; 4 or 20°C; D3 symmetry
[3] = target: T1, Human C-reactive protein (human), P02741; experiment: cryo-EM structure; single-particle cryo-EM, plunge-frozen Quantifoil 1.2/1.3 grids, 20 mM Tris pH 8, 280 mM NaCl, 5 mM CaCl2, 0.03% NaN3; no additive or CTAB, SLS, Tween 20, Tween 80, A8-35; 20°C; conditions: remark: other sources report otherwise
T1 chain: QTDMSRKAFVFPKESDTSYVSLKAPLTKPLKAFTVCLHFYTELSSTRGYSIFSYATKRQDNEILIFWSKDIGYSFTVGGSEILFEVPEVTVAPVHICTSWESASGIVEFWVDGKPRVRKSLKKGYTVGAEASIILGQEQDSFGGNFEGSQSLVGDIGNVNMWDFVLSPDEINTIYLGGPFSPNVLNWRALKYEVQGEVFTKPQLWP

Molecule: SARS-CoV-2 spike protein with C-terminal tag (domain or fragment)
- stoichiometry N [1]: 3

B1: E. coli PaaZ (enzyme)
chain: QQLASFLSGTWQSGRGRSRLIHHAISGEALWEVTSEGLDMAAARQFAIEKGAPALRAMTFIERAAMLKAVAKHLLSEKERFYALSAQTGATRADSWVDIEGGIGTLFTYASLGSRELPDDTLWPEDELIPLSKEGGFAARHLLTSKSGVAVHINAFNFPCWGMLEKLAPTWLGGMPAIIKPATATAQLTQAMVKSIVDSGLVPEGAISLICGSAGDLLDHLDSQDVVTFTGSAATGQMLRVQPNIVAKSIPFTMEADSLNCCVLGEDVTPDQPEFALFIREVVREMTTKAGQKCTAIRRIIVPQALVNAVSDALVARLQKVVVGDPAQEGVKMGALVNAEQRADVQEKVNILLAAGCEIRLGGQADLSAAGAFFPPTLLYCPQPDETPAVHATEAFGPVATLMPAQNQRHALQLACAGGGSLAGTLVTADPQIARQFIADAARTHGRIQILNEESAKESTGHGSPLPQLVHGGPGRAGGGEELGGLRAVKHYMQRTAVQGSPTMLAAISKQWVRGAKVEEDRIHPFRKYFEELQPGDSLLTPRRTMTEADIVNFACLSGDHFYAHMDKIAAAESIFGERVVHGYFVLSAAAGLFVDAGVGPVIANYGLESLRFIEPVKPGDTIQVRLTCKRKTLKKQRSAEEKPTGVVEWAVEVFNQHQTPVALYSILTLVARQHGDFVD
notes: source: recombinantly overexpressed, purified as described in Sathyanarayanan et al. (2019)
- stoichiometry N [2]: 6

B2: Human C-reactive protein, P02741 19-224 (natural protein)
chain: QTDMSRKAFVFPKESDTSYVSLKAPLTKPLKAFTVCLHFYTELSSTRGYSIFSYATKRQDNEILIFWSKDIGYSFTVGGSEILFEVPEVTVAPVHICTSWESASGIVEFWVDGKPRVRKSLKKGYTVGAEASIILGQEQDSFGGNFEGSQSLVGDIGNVNMWDFVLSPDEINTIYLGGPFSPNVLNWRALKYEVQGEVFTKPQLWP
- stoichiometry N [3]: 5 and 10
